Experimental data: article PMC6440998, “Tunable microsecond dynamics of an allosteric switch regulate the activity of a AAA+ disaggregation machine” (Nature Communications, 2019)

Tested on: T1, Nc1ncnc2c1ncn2[C@@H]1O[C@H](COP(=O)(O)OP(=O)(O)OP(=O)(O)O)[C@@H](O)[C@H]1O
T1 construct: full length, N-domain, NBD1, M domain, NBD2; pET28b, His6 tag with TEV cleavage site; expressed in E. coli BL21(DE3) pLysS; homohexamer
Assay: purified protein
Type: biochemical, Thermus thermophilus
Conditions: basal activity, no casein, 50 mM HEPES pH 7.8, 50 mM KCl, 10 mM MgCl2, 25 °C, Hill fit

Sequence of TT ClpB (Thermus thermophilus HB8) (chain, as listed by the source): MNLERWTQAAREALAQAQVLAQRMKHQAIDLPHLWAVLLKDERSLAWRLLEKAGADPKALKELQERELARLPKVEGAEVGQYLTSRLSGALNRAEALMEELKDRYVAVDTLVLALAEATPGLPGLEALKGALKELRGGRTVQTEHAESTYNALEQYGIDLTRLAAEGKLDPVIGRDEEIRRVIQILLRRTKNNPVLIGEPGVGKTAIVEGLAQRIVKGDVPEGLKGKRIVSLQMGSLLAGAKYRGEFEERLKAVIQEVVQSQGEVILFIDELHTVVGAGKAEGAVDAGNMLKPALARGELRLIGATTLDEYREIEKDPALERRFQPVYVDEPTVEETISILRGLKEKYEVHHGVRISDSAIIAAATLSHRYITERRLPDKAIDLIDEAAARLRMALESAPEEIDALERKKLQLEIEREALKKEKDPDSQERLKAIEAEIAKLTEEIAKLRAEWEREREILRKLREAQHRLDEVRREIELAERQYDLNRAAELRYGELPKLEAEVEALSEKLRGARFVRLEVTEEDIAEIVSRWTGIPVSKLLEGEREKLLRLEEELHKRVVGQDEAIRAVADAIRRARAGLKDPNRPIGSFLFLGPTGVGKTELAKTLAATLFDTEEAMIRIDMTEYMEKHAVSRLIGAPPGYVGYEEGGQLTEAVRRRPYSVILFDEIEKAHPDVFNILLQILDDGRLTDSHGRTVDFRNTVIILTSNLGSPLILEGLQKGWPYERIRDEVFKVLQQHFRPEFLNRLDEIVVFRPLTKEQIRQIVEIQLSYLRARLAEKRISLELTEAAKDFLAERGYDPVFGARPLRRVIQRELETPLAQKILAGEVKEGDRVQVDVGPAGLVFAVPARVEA

Sequence TT ClpB (Thermus thermophilus HB8) has a K0.5 of 390 ± 15 µM and a kcat of 0.0533 ± 0.00167 s⁻¹.
